Experiments:
human podocalyxin [1] = molecular target: T1, human podocalyxin (human); experiment: FACS, isotype control, hPodo/MDA cells
T1 chain: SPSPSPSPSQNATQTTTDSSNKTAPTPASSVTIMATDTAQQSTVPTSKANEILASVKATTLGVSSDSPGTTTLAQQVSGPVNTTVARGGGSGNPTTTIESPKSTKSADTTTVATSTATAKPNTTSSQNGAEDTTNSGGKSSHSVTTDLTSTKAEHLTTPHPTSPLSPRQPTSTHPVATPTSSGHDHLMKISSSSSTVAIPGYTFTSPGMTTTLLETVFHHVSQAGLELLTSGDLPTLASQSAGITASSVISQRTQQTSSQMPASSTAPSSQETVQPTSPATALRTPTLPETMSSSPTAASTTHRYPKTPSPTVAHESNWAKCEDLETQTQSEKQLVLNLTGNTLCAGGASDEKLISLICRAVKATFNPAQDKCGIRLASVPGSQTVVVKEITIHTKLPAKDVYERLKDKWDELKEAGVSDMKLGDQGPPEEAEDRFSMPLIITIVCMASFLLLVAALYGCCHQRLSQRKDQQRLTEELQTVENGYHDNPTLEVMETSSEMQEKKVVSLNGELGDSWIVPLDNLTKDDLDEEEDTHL

human podocalyxin [2] = molecular target: T1, human podocalyxin; experiment: cross competition FACS on MDA-MB-231 cells; unlabeled antibody 25 ug/mL; detected antibody: B-Ova 12 5 ug/mL (control)
human podocalyxin [3] = molecular target: T1, human podocalyxin; experiment: cross competition FACS on MDA-MB-231 cells; unlabeled antibody 25 ug/mL; detected antibody: B-Herceptin 5 ug/mL (control, its target on the cells not given)
human podocalyxin [4] = molecular target: T1, human podocalyxin; experiment: cross competition FACS on MDA-MB-231 cells; unlabeled antibody 25 ug/mL; competitor and detected antibody: biotinylated Rb/Hu Podo83 5 ug/mL
human podocalyxin [5] = molecular target: T1, human podocalyxin; experiment: cross competition FACS on MDA-MB-231 cells; unlabeled antibody 25 ug/mL; competitor and detected antibody: B-3G2.2 5 ug/mL
human podocalyxin [6] = molecular target: T1, human podocalyxin; experiment: cross competition FACS on MDA-MB-231 cells; unlabeled antibody 25 ug/mL; detected antibody: B-mIgG1 5 ug/mL (control)
[7] = molecular target: human podocalyxin (human); experiment: FACS, hPodo/MDA cells (MDA-MB-231 transfected with human podocalyxin cDNA)
[8] = molecular target: human podocalyxin (human); experiment: flow cytometry, supernatant 1:5, hPodo/MDA-MB-231 transient transfectants
[9] = molecular target: human podocalyxin (human); experiment: flow cytometry, supernatant neat, hPodo/MDA-MB-231 transient transfectants
[10] = molecular target: human podocalyxin (human); experiment: flow cytometry, supernatant 2:15 (so in the source), hPodo/MDA-MB-231 transient transfectants
[11] = molecular target: human podocalyxin (human); experiment: flow cytometry, supernatant neat, MDA-MB-231 cells
[12] = molecular target: human podocalyxin (human); experiment: flow cytometry, supernatant 1:5, MDA-MB-231 cells
[13] = molecular target: human podocalyxin (human); experiment: flow cytometry, supernatant 1:125, hPodo/MDA-MB-231 transient transfectants
[14] = molecular target: human podocalyxin (human); experiment: flow cytometry, supernatant 1:125, MDA-MB-231 cells
[15] = molecular target: human podocalyxin (human); experiment: flow cytometry, supernatant 2:15 (so in the source), MDA-MB-231 cells
human podocalyxin [16] = molecular target: T1, human podocalyxin; experiment: flow cytometry, supernatant 1:5, hPodo/MDA-MB-231 transient transfectants
human podocalyxin [17] = molecular target: T1, human podocalyxin; experiment: flow cytometry, supernatant 1:125, MDA-MB-231 cells
human podocalyxin [18] = molecular target: T1, human podocalyxin; experiment: flow cytometry, supernatant 1:125, hPodo/MDA-MB-231 transient transfectants
human podocalyxin [19] = molecular target: T1, human podocalyxin; experiment: flow cytometry, supernatant neat, hPodo/MDA-MB-231 transient transfectants
human podocalyxin [20] = molecular target: T1, human podocalyxin; experiment: flow cytometry titration on 293-6E cells (endogenous podocalyxin), 24 hours at 4 C
human podocalyxin [21] = molecular target: T1, human podocalyxin; experiment: flow cytometry, supernatant 2:15 (so in the source), hPodo/MDA-MB-231 transient transfectants
human podocalyxin [22] = molecular target: T1, human podocalyxin; experiment: flow cytometry titration on 293-6E cells (endogenous podocalyxin), 48 hours at 4 C
human podocalyxin [23] = molecular target: T1, human podocalyxin; experiment: flow cytometry, supernatant neat, MDA-MB-231 cells
human podocalyxin [24] = molecular target: T1, human podocalyxin; experiment: flow cytometry, supernatant 2:15 (so in the source), MDA-MB-231 cells
human podocalyxin [25] = molecular target: T1, human podocalyxin; experiment: flow cytometry, supernatant 1:5, MDA-MB-231 cells
human podocalyxin [26] = molecular target: T1, human podocalyxin; experiment: kinetic exclusion assay (KinExA 3200), MDA-MB-231 cells

hIgG2 (antibody) was tested, and the FACS signal (name not given) (human podocalyxin [1]) was 533.

hIgG1 (antibody) showed an FACS signal (name not given) (human podocalyxin [1]) of 544.

For MAB1658 (R&D Systems) (antibody), the FACS signal (name not given) (human podocalyxin [2]) was 476, the FACS signal (name not given) (human podocalyxin [3]) was 4720 and the FACS signal (name not given) (human podocalyxin [4]) was 127000. For the same molecule, the FACS signal (name not given) (human podocalyxin [5]) was 26900 and the FACS signal (name not given) (human podocalyxin [6]) was 431.

Work on mIgG1 (antibody) yielded an FACS signal (name not given) (human podocalyxin [2]) of 458, an FACS signal (name not given) (human podocalyxin [3]) of 4810 and an FACS signal (name not given) (human podocalyxin [4]) of 124000. For the same molecule, the FACS signal (name not given) (human podocalyxin [5]) was 26600 and the FACS signal (name not given) (human podocalyxin [6]) was 414.

In the case of “3D3 (Santa Cruz Biotechnology sc23904) (antibody)”, the FACS signal (name not given) (human podocalyxin [2]) is reported as 450, the FACS signal (name not given) (human podocalyxin [3]) is reported as 4820 and the FACS signal (name not given) (human podocalyxin [4]) is reported as 135000. For the same molecule, the FACS signal (name not given) (human podocalyxin [5]) was 26400 and the FACS signal (name not given) (human podocalyxin [6]) was 419.

B1: Rb/huPodo 83 hIgG2 (antibody, V domains shown)
VH: CQSLAESGGRLVTPGTPLTLTCTASGIDLSSYAMGWVRQAPGKGLEYIGFIYASGSIFYASWAKGRFTISKTSSTTVDLKMTSLTTEDTATYFCARAGYYFGGNYDLNLWGQGTLVTVSS
VL: DIVLTQTPASVEVAVGGTVTIKCQASQSISNYLAWYQRKPGQPPRLLIYRASTLASGVSSRFKGSGSGTQFTLTISGVECADAATYYCQQGYVSNNLDNIFGGGTEVVVK
modifications: human IgG2 constant regions
B1 gave an FACS signal (name not given) [7] of 98300.

B2: Rabbit Podo 83 (Parental rabbit antibody) (antibody, V domains shown)
VH: CQSLAESGGRLVTPGTPLTLTCTASGIDLSSYAMGWVRQAPGKGLEYIGFIYASGSIFYASWAKGRFTISKTSSTTVDLKMTSLTTEDTATYFCARAGYYFGGNYDLNLWGQGTLVTVSS
VL: DIVLTQTPASVEVAVGGTVTIKCQASQSISNYLAWYQRKPGQPPRLLIYRASTLASGVSSRFKGSGSGTQFTLTISGVECADAATYYCQQGYVSNNLDNIFGGGTEVVVK
modifications: rabbit constant regions
B2 was tested, and the FACS signal (name not given) [8] was 139000, the FACS signal (name not given) [9] was 90800 and the FACS signal (name not given) [10] was 89700. For the same molecule, the FACS signal (name not given) [11] was 179000, the FACS signal (name not given) [12] was 129000 and the FACS signal (name not given) [13] was 24100. For the same molecule, the FACS signal (name not given) [14] was 15500 and the FACS signal (name not given) [15] was 53700.

B3: huPodo 83 2:1 (humanized anti-podocalyxin antibody 83, version 2) (antibody, V domains shown)
VH: EVQLVESGGGLVQPGGSLRLSCAASGIDLSSYAMGWVRQAPGKGLEWVSFIYASGSIFYASWAKGRFTISRDNSNTLYLQMNSLRAEDTAVYYCARAGYYFGGNYDLNLWGQGTLVTVSS
VL: DIQMTQSPSSLSASVGDRVTITCQASQSISNYLAWYQQKPGKVPKLLIYRASTLASGVPSRFSGSGSGTDFTLTISSLQPEDVATYYCQQGYVSNNLDNIFGGGTEVVVK
For B3, the “FACS signal (name not given)” value (human podocalyxin [16]) was 108000, the “FACS signal (name not given)” value (human podocalyxin [17]) was 22300 and the “FACS signal (name not given)” value (human podocalyxin [18]) was 37700. The “FACS signal (name not given)” value (human podocalyxin [19]) was 139000, the EC50 (human podocalyxin [20]) was 0.0519 µg/mL and the “FACS signal (name not given)” value (human podocalyxin [21]) was 79400. The IC50 (human podocalyxin [22]) was 0.052 µg/mL, the “FACS signal (name not given)” value (human podocalyxin [23]) was 123000 and the “FACS signal (name not given)” value (human podocalyxin [24]) was 67200. The “FACS signal (name not given)” value (human podocalyxin [25]) was 105000.

B4: Rb VH, Vk 1:1 (Podo 83 rabbit VH, human CH1-CH3, human Ck, and humanized Vk) (antibody, V domains shown)
VH: QSLAESGGRLVTPGTPLTLTCTASGIDLSSYAMGWVRQAPGKGLEYIGFIYASGSIFYASWAKGRFTISKTSSTTVDLKMTSLTTEDTATYFCARAGYYFGGNYDLNLWGQGTLVTVSS
VL: DIQMTQSPSSLSASVGDRVTITCQASQSISNYLAWYQQKPGKVPKLLIYRASTLASGVPSRFSGSGSGTDFTLTISSLQPEDVATYYCQQGYVSNNLDNIFGGGTEVVVK
In the case of B4, the “FACS signal (name not given)” value (human podocalyxin [16]) is reported as 124000, the “FACS signal (name not given)” value (human podocalyxin [17]) is reported as 47700 and the “FACS signal (name not given)” value (human podocalyxin [18]) is reported as 74500. The “FACS signal (name not given)” value (human podocalyxin [19]) was 137000, the “FACS signal (name not given)” value (human podocalyxin [21]) was 76400 and the “FACS signal (name not given)” value (human podocalyxin [23]) was 130000. The “FACS signal (name not given)” value (human podocalyxin [24]) was 94800 and the “FACS signal (name not given)” value (human podocalyxin [25]) was 115000.

B5: Mouse anti-podocalyxin antibody 3G2 (antibody, V domains shown)
VH: EVQLQQSGPELVKPGASVKMSCKASGYTFTSYVMHWVKQKPGQGLEWIGYIHPYNDGTNYNEKFKGKATLTSDKSSNTAYMELSSLTSEDSAVYYCARSWDWYFDVWGAGTTVTVSS
VL: QIVLTQSPAIMSASPGEKVTMTCSANSNVRYIHWHQQKSGTSPKRWIYDTSKLSSGVPARFSGSGSGTSYSLTISNMEAEDAATYYCQQWISNPLTFGAGTKLELK
In the case of B5, the Kd (human podocalyxin [26]) is reported as 3.34 nM.

Reference: patent US20160264663A1 (published 2016)
